The supplement of paper PMC7125110
± gives the standard error. For some assays here: Fewer inactive variants are shown than the library holds.

B1: glmS ribozyme (parent)
chain: AUAAAAGCGCCAGAACUACAGAAAUGUAGUUGACGAGGAGGAGGUUUAUCGAAUUUUCGGCGGAUGCCUCCAAA

Columns and labels:
Conditions in all cases: with glucosamine-6-phosphate
[1] = variants of: B1; test: kcat; higher = faster cleavage; RNA array
Method in brief: (§1)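 Tiles of sequenced MiSeq chips were imaged over ~14 h at 37 °C. On them, barcoded ribozyme variants had been transcribed in situ by E. coli RNA polymerase and were tracked via a hybridised Cy3 probe while glucosamine-6-phosphate (40 μM to 10 mM) in HEPES/KCl/Mg(OAc)2 buffer flowed in. Per-tile medians, normalised to baseline and to non-cleaving reference variants, were fit to one- or two-exponential decays for kobs, and weighted Michaelis–Menten fits gave kcat and KM.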

[2] = variants of: B1; test: KM; higher = weaker cofactor use; RNA array
Method in brief: as §1

[3] = variants of: B1; test: self-cleavage kobs at 640 uM GlcN6P; higher = faster cleavage; RNA array
Method in brief: as §1

[4] = variants of: B1; test: self-cleavage kobs at 2500 uM GlcN6P; higher = faster cleavage; RNA array
Method in brief: as §1

[5] = variants of: B1; test: self-cleavage kobs at 10000 uM GlcN6P; higher = faster cleavage; RNA array
Method in brief: as §1

[6] = variants of: B1; test: self-cleavage kobs at 40 uM GlcN6P; higher = faster cleavage; RNA array
Method in brief: as §1

[7] = variants of: B1; test: self-cleavage kobs at 160 uM GlcN6P; higher = faster cleavage; RNA array
Method in brief: as §1

Row | Variant | kcat [1] | KM [2] | self-cleavage kobs at 640 uM GlcN6P [3] | self-cleavage kobs at 2500 uM GlcN6P [4] | self-cleavage kobs at 10000 uM GlcN6P [5] | self-cleavage kobs at 40 uM GlcN6P [6] | self-cleavage kobs at 160 uM GlcN6P [7]
1 | A48U C67U | 0.00022 ± 1.3e-05 s⁻¹ | 1890 ± 230 µM | 5.32e-05 ± 7.6e-06 s⁻¹ | 0.000135 ± 1.7e-05 s⁻¹ | 0.00018 ± 2e-05 s⁻¹ | – | –
2 | U47C U56G | 0.00245 ± 0.00054 s⁻¹ | 1580 ± 540 µM | 0.000708 ± 8.7e-05 s⁻¹ | 0.00108 ± 0.00025 s⁻¹ | 0.00243 ± 0.0003 s⁻¹ | 7.97e-05 ± 1.3e-05 s⁻¹ | 0.000196 ± 4e-05 s⁻¹
3 | U45G U54C | 0.0089 ± 0.00053 s⁻¹ | 1480 ± 160 µM | 0.00308 ± 0.00078 s⁻¹ | 0.00519 ± 0.00085 s⁻¹ | 0.00798 ± 0.001 s⁻¹ | 0.000233 ± 5.4e-05 s⁻¹ | 0.000851 ± 0.00024 s⁻¹
4 | U46C U47A | 0.00433 ± 0.002 s⁻¹ | – | 0.000719 ± 0.00017 s⁻¹ | 0.00311 ± 0.0008 s⁻¹ | 0.00365 ± 0.001 s⁻¹ | 9.34e-05 ± 1.5e-05 s⁻¹ | –
5 | U47C C70G | 0.000161 ± 3.3e-05 s⁻¹ | – | 0.000172 ± 3.5e-05 s⁻¹ | 0.00012 ± 3e-05 s⁻¹ | 0.000256 ± 0.0001 s⁻¹ | – | 7.93e-05 ± 2.2e-05 s⁻¹
6 | U46G A64C | 1.9e-05 ± 5.9e-07 s⁻¹ | 227 ± 47 µM | – | – | – | < 1e-05 s⁻¹ | –
7 | A48U U49G | 1.55e-05 ± 3.7e-06 s⁻¹ | – | – | – | – | < 1e-05 s⁻¹ | –
8 | U45A A52G | 0.00326 ± 0.00073 s⁻¹ | 2900 ± 900 µM | 0.000699 ± 8.5e-05 s⁻¹ | 0.00135 ± 0.00014 s⁻¹ | 0.00293 ± 0.00044 s⁻¹ | 5.17e-05 ± 1e-05 s⁻¹ | 0.000155 ± 2.1e-05 s⁻¹
9 | U46A A53U | 0.00158 ± 0.00035 s⁻¹ | 1520 ± 540 µM | 0.000394 ± 5.6e-05 s⁻¹ | 0.000952 ± 0.00012 s⁻¹ | 0.00158 ± 0.00025 s⁻¹ | 5.78e-05 ± 1.1e-05 s⁻¹ | 0.000161 ± 3.2e-05 s⁻¹
10 | U46G C50A | < 1e-05 s⁻¹ | – | – | – | – | – | < 1e-05 s⁻¹
11 | U45A C67A C68G | 1.46e-05 ± 7.2e-06 s⁻¹ | – | – | – | – | – | –
12 | U45C A53G | 0.00416 ± 0.0017 s⁻¹ | – | 0.000905 ± 0.00016 s⁻¹ | 0.00188 ± 0.00042 s⁻¹ | 0.00291 ± 0.00074 s⁻¹ | – | 0.000134 ± 4.9e-05 s⁻¹
13 | U46G U65A | 0.00378 ± 0.00067 s⁻¹ | 2420 ± 650 µM | 0.000703 ± 0.00015 s⁻¹ | 0.00212 ± 0.00033 s⁻¹ | 0.00296 ± 0.00047 s⁻¹ | 8.18e-05 ± 1.7e-05 s⁻¹ | 0.000198 ± 4.8e-05 s⁻¹
14 | U47G C61G | 1.1e-05 ± 2e-06 s⁻¹ | – | – | – | – | – | –
15 | U47G C61U | 2.06e-05 ± 4.9e-06 s⁻¹ | – | – | – | – | < 1e-05 s⁻¹ | –
16 | U45G U65G | 0.00365 ± 0.0011 s⁻¹ | 2200 ± 1000 µM | 0.000639 ± 0.00024 s⁻¹ | 0.00296 ± 0.00091 s⁻¹ | 0.00282 ± 0.00077 s⁻¹ | 7.22e-05 ± 2.1e-05 s⁻¹ | –
17 | U45A U56G | 0.0614 ± 0.024 s⁻¹ | 3390 ± 1600 µM | 0.0108 ± 0.0024 s⁻¹ | 0.0272 ± 0.0087 s⁻¹ | 0.0457 ± 0.011 s⁻¹ | 0.000857 ± 0.00011 s⁻¹ | 0.00188 ± 0.00049 s⁻¹

Row | Variant | kcat [1] | KM [2] | self-cleavage kobs at 640 uM GlcN6P [3] | self-cleavage kobs at 2500 uM GlcN6P [4] | self-cleavage kobs at 10000 uM GlcN6P [5] | self-cleavage kobs at 40 uM GlcN6P [6] | self-cleavage kobs at 160 uM GlcN6P [7]
18 | U46A U56A | 0.001 ± 0.00013 s⁻¹ | 1800 ± 490 µM | 0.000307 ± 7e-05 s⁻¹ | 0.000533 ± 0.00015 s⁻¹ | 0.000853 ± 0.00014 s⁻¹ | – | –
19 | U47C C71U | 0.00356 ± 0.00095 s⁻¹ | 1310 ± 520 µM | 0.00148 ± 0.0002 s⁻¹ | 0.00219 ± 0.00045 s⁻¹ | 0.00312 ± 0.00038 s⁻¹ | 0.000124 ± 1.4e-05 s⁻¹ | 0.000184 ± 6.7e-05 s⁻¹
20 | U47A G59A | 8.22e-05 ± 1.1e-05 s⁻¹ | 3740 ± 1100 µM | – | 3.14e-05 ± 1.2e-05 s⁻¹ | 6.07e-05 ± 1.8e-05 s⁻¹ | < 1e-05 s⁻¹ | –
21 | U47G A52U | 0.000286 ± 1.4e-05 s⁻¹ | 1950 ± 180 µM | 6.99e-05 ± 7.7e-06 s⁻¹ | 0.000169 ± 2e-05 s⁻¹ | 0.000234 ± 2.6e-05 s⁻¹ | – | –
22 | U45C U54A | 0.00783 ± 0.0023 s⁻¹ | 6680 ± 2400 µM | 0.00072 ± 0.00011 s⁻¹ | 0.00255 ± 0.00053 s⁻¹ | 0.00436 ± 0.001 s⁻¹ | – | 0.000161 ± 3.3e-05 s⁻¹
23 | U47A G66U | 0.00545 ± 0.0009 s⁻¹ | 1780 ± 480 µM | 0.00141 ± 0.00028 s⁻¹ | 0.00244 ± 0.00069 s⁻¹ | 0.00506 ± 0.00076 s⁻¹ | 0.00013 ± 2.5e-05 s⁻¹ | –
24 | U46G C68A | 3.1e-05 ± 2.2e-06 s⁻¹ | – | – | – | 3.1e-05 ± 1.1e-05 s⁻¹ | – | –
25 | U46G C68G | 0.000103 ± 4e-06 s⁻¹ | 678 ± 110 µM | 5.11e-05 ± 1.8e-05 s⁻¹ | 7.97e-05 ± 1.8e-05 s⁻¹ | 9.69e-05 ± 1.7e-05 s⁻¹ | – | –
26 | U45G U69G | 0.000184 ± 5.8e-05 s⁻¹ | – | – | – | 0.000152 ± 3.8e-05 s⁻¹ | – | –
27 | U46A G60A | < 1e-05 s⁻¹ | – | < 1e-05 s⁻¹ | – | – | – | –
28 | U45A U54A | 0.115 ± 0.045 s⁻¹ | 2630 ± 1200 µM | 0.0204 ± 0.0069 s⁻¹ | 0.122 ± 0.049 s⁻¹ | 0.0819 ± 0.035 s⁻¹ | 0.00179 ± 0.00033 s⁻¹ | 0.00611 ± 0.0017 s⁻¹
29 | U46C A48U | 8.27e-05 ± 1.4e-05 s⁻¹ | – | – | 6.44e-05 ± 1.3e-05 s⁻¹ | 6.9e-05 ± 9e-06 s⁻¹ | – | –
30 | U47G A64G C70G | 3.26e-05 ± 9.4e-06 s⁻¹ | – | – | – | – | < 1e-05 s⁻¹ | –
31 | U45C A48C | < 1e-05 s⁻¹ | – | – | – | – | – | < 1e-05 s⁻¹
32 | A48U C50G G59U G66U | 1.53e-05 ± 4.3e-06 s⁻¹ | – | – | – | – | – | < 1e-05 s⁻¹
33 | A48C C67U | 0.000136 ± 1.3e-05 s⁻¹ | 4380 ± 1100 µM | – | 5.35e-05 ± 1.4e-05 s⁻¹ | 9.42e-05 ± 1.2e-05 s⁻¹ | – | –
34 | U47G C68A | 6.42e-05 ± 2.2e-05 s⁻¹ | – | 0.000121 ± 2.4e-05 s⁻¹ | 9.07e-05 ± 1.6e-05 s⁻¹ | 3.58e-05 ± 1.2e-05 s⁻¹ | – | 4.97e-05 ± 2e-05 s⁻¹
